Our source for the Km, kcat and kcat/Km values is patent US12234463B2, “Engineered microorganisms with G3P → 3PG enzyme and/or fructose-1,6-bisphosphatase including those having synthetic or enhanced methylotrophy” (Genomatica, Inc., priority 2018, dated 2025).

Substrate in data set [1]: O=C[C@H](O)COP(=O)(O)O
Put plainly: GapN vs. GapA kinetic comparison: catalytic constants of GapA (Table 18). The class given is biochemical, E. coli. The following applies: other: fixed NAD; G3P varied.

Substrate in data set [2]: NC(=O)c1ccc[n+]([C@@H]2O[C@H](COP(=O)(O)OP(=O)(O)OC[C@H]3O[C@@H](n4cnc5c(N)ncnc54)[C@H](OP(=O)(O)O)[C@@H]3O)[C@@H](O)[C@H]2O)c1
Briefly: purified protein, by the assay type. The following applies: other: fixed G3P; NADP varied.

B1: E. coli GapA (NAD-dependent glyceraldehyde-3-phosphate dehydrogenase A; P0A9B2) (Escherichia coli K-12) (protein)
chain: MTIKVGINGFGRIGRIVFRAAQKRSDIEIVAINDLLDADYMAYMLKYDSTHGRFDGTVEVKDGHLIVNGKKIRVTAERDPANLKWDEVGVDVVAEATGLFLTDETARKHITAGAKKVVMTGPSKDNTPMFVKGANFDKYAGQDIVSNASCTTNCLAPLAKVINDNFGIIEGLMTTVHATTATQKTVDGPSHKDWRGGRGASQNIIPSSTGAAKAVGKVLPELNGKLTGMAFRVPTPNVSVVDLTVRLEKAATYEQIKAAVKAAAEGEMKGVLGYTEDDVVSTDFNGEVCTSVFDAKAGIALNDNFVKLVSWYDNETGYSNKVLDLIAHISK
notes: NAD-dependent; kinetic assay with G3P
Broadly, the Km is the substrate concentration at which the rate is half of its maximum. One may read the kcat as the maximal rate divided by the concentration of active sites. Usually kcat/Km stands for the second-order rate constant that governs catalysis at low substrate concentration. Regarding B1, in data set [1], the Michaelis-Menten constant (Km) came to 2000 ± 300 µM, the kcat was determined as 19 ± 1 s⁻¹ and the kcat/Km turned out to be 9500 M⁻¹ s⁻¹.

B2: Bacillus methanolicus MGA3 GapN (NADP-dependent glyceraldehyde-3-phosphate dehydrogenase), cds 10663A (Bacillus methanolicus MGA3) (protein)
chain: MQVLEKDFKFLLNGEWSFSSSNQFINIYSPSTGEVVGRVPAMTKDEIDKAVAGARQAQKKWEKLAVSERAKILHAWADELVKMIDVIAPMIMNEVGKNISTARKEVTRTAEIIRYTAEEGVRIHGEFINGGSLDADSSIKTAIVEKKPLGVILAISPFNYPINLAATKIAPALIAGNAVVFKPATQGAISGLLMIQALENAGLPKGLVNTVTGKGSEIGDYIITHPFIDMISFTGGTGTGQNIARKASMIPLVLELGGKDPAIVLEDADLELAATEIVSGAFSYSGQRCTAIKRVLVLKDVAAPLIEKIKEKVEKLTVGRPEDDADITPLIDESSADFVQGLIDDALAKGASLITGNKREKNLIYPTVLSNVTKDMKVAWEEPFGPVLPCIIVDSVEEAIEIANESEFGLQASVFTSNIEKAFTIASSLDVGSVQINGRTERGPDHFPFSAVKNSGLGSQGIRQSIISMMRDKVTVINLKK
As for B2, in data set [2], the Km is 270 ± 40 µM, the kcat amounted to 8.2 s⁻¹ and the specificity constant (kcat/Km) amounted to 30000 M⁻¹ s⁻¹.

B3: Bacillus methanolicus PB1 GapN (NADP-dependent glyceraldehyde-3-phosphate dehydrogenase), cds 10662A (Bacillus methanolicus PB1) (protein)
chain: MQVLEKDHKFLLNGKWCYSSSNEFINIYSPSTGEIVGRVPAMTKDEIDKAVAGACQAQKNWEKLAVSDRAKILHAWADELVKMIDVIAPMIMNEVGKNISTAKREVIRTADIIRYTAEEGVRIHGEFINGGSLDADSSKKTAIVEKKPLGVILAISPFNYPINLAATKIAPALIAGNAVVFKPATQGAISGLLMIQALENAGLPEGLVNTVTGKGSEIGDYIITHPFIDMISFTGGTGTGQNIARKASMIPLVLELGGKDPAIVLEDADLELAAAEIVSGAFSYSGQRCTAIKRVIVLKDAAAPLIEKIKEKVEKLTVGKPEDDADITPLIDESSADFVQGLIDDALAKGATLITGNKREKNLIYPTVLSNVTKDMKVAWEEPFGPVLPCIIVDSAEEAIEIANESEFGLQASVFTTNIEKAFSIASSLDVGSVQINGRTERGPDHFPFSAVKNSGLGSQGIRQSIISMMRDKVTVINLKR
As to B3, in data set [2], the Michaelis-Menten constant (Km) came out at 320 ± 70 µM, the turnover number (kcat) is 9.7 s⁻¹ and the kcat/Km turned out to be 31000 M⁻¹ s⁻¹.
